B1: anti-CD3 antibody mutant VH-M34C (antibody, V domains shown)
VH: EVQLVESGGGLVQPGGSLRLSCAASGFTFSTYACNWVRQAPGKGLEWVGRIRSKYNNYATYYADSVKDRFTISRDDSKNSLYLQMNSLKTEDTAVYYCARHGNFGNSYVSWFAYWGQGTLVTVSS
VL: QTVVTQEPSLTVSPGGTVTLTCRSSTGAVTTSNYANWVQQKPGQAPRGLIGGTNKRAPGVPARFSGSLLGDKAALTLLGAQPEDEAEYFCALWYSNLWVFGGGTKLTVL
B2: anti-CD3 antibody mutant VH-F104C (antibody, V domains shown)
VH: EVQLVESGGGLVQPGGSLRLSCAASGFTFSTYAMNWVRQAPGKGLEWVGRIRSKYNNYATYYADSVKDRFTISRDDSKNSLYLQMNSLKTEDTAVYYCARHGNCGNSYVSWFAYWGQGTLVTVSS
VL: QTVVTQEPSLTVSPGGTVTLTCRSSTGAVTTSNYANWVQQKPGQAPRGLIGGTNKRAPGVPARFSGSLLGDKAALTLLGAQPEDEAEYFCALWYSNLWVFGGGTKLTVL
B3: anti-CD3 antibody mutant VL-K55C (antibody, V domains shown)
VH: EVQLVESGGGLVQPGGSLRLSCAASGFTFSTYAMNWVRQAPGKGLEWVGRIRSKYNNYATYYADSVKDRFTISRDDSKNSLYLQMNSLKTEDTAVYYCARHGNFGNSYVSWFAYWGQGTLVTVSS
VL: QTVVTQEPSLTVSPGGTVTLTCRSSTGAVTTSNYANWVQQKPGQAPRGLIGGTNCRAPGVPARFSGSLLGDKAALTLLGAQPEDEAEYFCALWYSNLWVFGGGTKLTVL
B4: anti-CD3 antibody mutant VH-W111C (antibody, V domains shown)
VH: EVQLVESGGGLVQPGGSLRLSCAASGFTFSTYAMNWVRQAPGKGLEWVGRIRSKYNNYATYYADSVKDRFTISRDDSKNSLYLQMNSLKTEDTAVYYCARHGNFGNSYVSCFAYWGQGTLVTVSS
VL: QTVVTQEPSLTVSPGGTVTLTCRSSTGAVTTSNYANWVQQKPGQAPRGLIGGTNKRAPGVPARFSGSLLGDKAALTLLGAQPEDEAEYFCALWYSNLWVFGGGTKLTVL
B5: anti-CD3 antibody mutant VL-N96C (antibody, V domains shown)
VH: EVQLVESGGGLVQPGGSLRLSCAASGFTFSTYAMNWVRQAPGKGLEWVGRIRSKYNNYATYYADSVKDRFTISRDDSKNSLYLQMNSLKTEDTAVYYCARHGNFGNSYVSWFAYWGQGTLVTVSS
VL: QTVVTQEPSLTVSPGGTVTLTCRSSTGAVTTSNYANWVQQKPGQAPRGLIGGTNKRAPGVPARFSGSLLGDKAALTLLGAQPEDEAEYFCALWYSCLWVFGGGTKLTVL
B6: anti-CD3 antibody mutant VL-Y34C (antibody, V domains shown)
VH: EVQLVESGGGLVQPGGSLRLSCAASGFTFSTYAMNWVRQAPGKGLEWVGRIRSKYNNYATYYADSVKDRFTISRDDSKNSLYLQMNSLKTEDTAVYYCARHGNFGNSYVSWFAYWGQGTLVTVSS
VL: QTVVTQEPSLTVSPGGTVTLTCRSSTGAVTTSNCANWVQQKPGQAPRGLIGGTNKRAPGVPARFSGSLLGDKAALTLLGAQPEDEAEYFCALWYSNLWVFGGGTKLTVL
B7: anti-CD3 antibody mutant VL-R56C (antibody, V domains shown)
VH: EVQLVESGGGLVQPGGSLRLSCAASGFTFSTYAMNWVRQAPGKGLEWVGRIRSKYNNYATYYADSVKDRFTISRDDSKNSLYLQMNSLKTEDTAVYYCARHGNFGNSYVSWFAYWGQGTLVTVSS
VL: QTVVTQEPSLTVSPGGTVTLTCRSSTGAVTTSNYANWVQQKPGQAPRGLIGGTNKCAPGVPARFSGSLLGDKAALTLLGAQPEDEAEYFCALWYSNLWVFGGGTKLTVL
B8: anti-CD3 antibody mutant VL-Y94C (antibody, V domains shown)
VH: EVQLVESGGGLVQPGGSLRLSCAASGFTFSTYAMNWVRQAPGKGLEWVGRIRSKYNNYATYYADSVKDRFTISRDDSKNSLYLQMNSLKTEDTAVYYCARHGNFGNSYVSWFAYWGQGTLVTVSS
VL: QTVVTQEPSLTVSPGGTVTLTCRSSTGAVTTSNYANWVQQKPGQAPRGLIGGTNKRAPGVPARFSGSLLGDKAALTLLGAQPEDEAEYFCALWCSNLWVFGGGTKLTVL
B9: anti-CD3 antibody mutant VH-Y61C (antibody, V domains shown)
VH: EVQLVESGGGLVQPGGSLRLSCAASGFTFSTYAMNWVRQAPGKGLEWVGRIRSKYNNYATCYADSVKDRFTISRDDSKNSLYLQMNSLKTEDTAVYYCARHGNFGNSYVSWFAYWGQGTLVTVSS
VL: QTVVTQEPSLTVSPGGTVTLTCRSSTGAVTTSNYANWVQQKPGQAPRGLIGGTNKRAPGVPARFSGSLLGDKAALTLLGAQPEDEAEYFCALWYSNLWVFGGGTKLTVL
B10: anti-CD3 antibody mutant VL-W93C (antibody, V domains shown)
VH: EVQLVESGGGLVQPGGSLRLSCAASGFTFSTYAMNWVRQAPGKGLEWVGRIRSKYNNYATYYADSVKDRFTISRDDSKNSLYLQMNSLKTEDTAVYYCARHGNFGNSYVSWFAYWGQGTLVTVSS
VL: QTVVTQEPSLTVSPGGTVTLTCRSSTGAVTTSNYANWVQQKPGQAPRGLIGGTNKRAPGVPARFSGSLLGDKAALTLLGAQPEDEAEYFCALCYSNLWVFGGGTKLTVL
B11: anti-CD3 antibody mutant VL-N54C (antibody, V domains shown)
VH: EVQLVESGGGLVQPGGSLRLSCAASGFTFSTYAMNWVRQAPGKGLEWVGRIRSKYNNYATYYADSVKDRFTISRDDSKNSLYLQMNSLKTEDTAVYYCARHGNFGNSYVSWFAYWGQGTLVTVSS
VL: QTVVTQEPSLTVSPGGTVTLTCRSSTGAVTTSNYANWVQQKPGQAPRGLIGGTCKRAPGVPARFSGSLLGDKAALTLLGAQPEDEAEYFCALWYSNLWVFGGGTKLTVL
B12: anti-CD3 antibody mutant VH-S53C (antibody, V domains shown)
VH: EVQLVESGGGLVQPGGSLRLSCAASGFTFSTYAMNWVRQAPGKGLEWVGRIRCKYNNYATYYADSVKDRFTISRDDSKNSLYLQMNSLKTEDTAVYYCARHGNFGNSYVSWFAYWGQGTLVTVSS
VL: QTVVTQEPSLTVSPGGTVTLTCRSSTGAVTTSNYANWVQQKPGQAPRGLIGGTNKRAPGVPARFSGSLLGDKAALTLLGAQPEDEAEYFCALWYSNLWVFGGGTKLTVL
B13: anti-CD3 antibody mutant VL-R56C conjugated with Molecule I (+20K) (antibody, V domains shown)
VH: EVQLVESGGGLVQPGGSLRLSCAASGFTFSTYAMNWVRQAPGKGLEWVGRIRSKYNNYATYYADSVKDRFTISRDDSKNSLYLQMNSLKTEDTAVYYCARHGNFGNSYVSWFAYWGQGTLVTVSS
VL: QTVVTQEPSLTVSPGGTVTLTCRSSTGAVTTSNYANWVQQKPGQAPRGLIGGTNKCAPGVPARFSGSLLGDKAALTLLGAQPEDEAEYFCALWYSNLWVFGGGTKLTVL
modifications: Molecule I (+20K, shown only as a drawing) conjugated on Cys 56
B14: anti-CD3 antibody mutant VL-N54C conjugated with Molecule I (+20K) (antibody, V domains shown)
VH: EVQLVESGGGLVQPGGSLRLSCAASGFTFSTYAMNWVRQAPGKGLEWVGRIRSKYNNYATYYADSVKDRFTISRDDSKNSLYLQMNSLKTEDTAVYYCARHGNFGNSYVSWFAYWGQGTLVTVSS
VL: QTVVTQEPSLTVSPGGTVTLTCRSSTGAVTTSNYANWVQQKPGQAPRGLIGGTCKRAPGVPARFSGSLLGDKAALTLLGAQPEDEAEYFCALWYSNLWVFGGGTKLTVL
modifications: Molecule I (+20K, shown only as a drawing) conjugated on Cys 54
B15: anti-CD3 antibody mutant VH-S53C conjugated with Molecule I (+20K) (antibody, V domains shown)
VH: EVQLVESGGGLVQPGGSLRLSCAASGFTFSTYAMNWVRQAPGKGLEWVGRIRCKYNNYATYYADSVKDRFTISRDDSKNSLYLQMNSLKTEDTAVYYCARHGNFGNSYVSWFAYWGQGTLVTVSS
VL: QTVVTQEPSLTVSPGGTVTLTCRSSTGAVTTSNYANWVQQKPGQAPRGLIGGTNKRAPGVPARFSGSLLGDKAALTLLGAQPEDEAEYFCALWYSNLWVFGGGTKLTVL
modifications: Molecule I (+20K, shown only as a drawing) conjugated on Cys 53
B16: anti-CD3 antibody mutant VL-K55C conjugated with Molecule I (+20K) (antibody, V domains shown)
VH: EVQLVESGGGLVQPGGSLRLSCAASGFTFSTYAMNWVRQAPGKGLEWVGRIRSKYNNYATYYADSVKDRFTISRDDSKNSLYLQMNSLKTEDTAVYYCARHGNFGNSYVSWFAYWGQGTLVTVSS
VL: QTVVTQEPSLTVSPGGTVTLTCRSSTGAVTTSNYANWVQQKPGQAPRGLIGGTNCRAPGVPARFSGSLLGDKAALTLLGAQPEDEAEYFCALWYSNLWVFGGGTKLTVL
modifications: Molecule I (+20K, shown only as a drawing) conjugated on Cys 55
B17: anti-CD3 antibody mutant VH-M34C conjugated with Molecule I (+20K) (antibody, V domains shown)
VH: EVQLVESGGGLVQPGGSLRLSCAASGFTFSTYACNWVRQAPGKGLEWVGRIRSKYNNYATYYADSVKDRFTISRDDSKNSLYLQMNSLKTEDTAVYYCARHGNFGNSYVSWFAYWGQGTLVTVSS
VL: QTVVTQEPSLTVSPGGTVTLTCRSSTGAVTTSNYANWVQQKPGQAPRGLIGGTNKRAPGVPARFSGSLLGDKAALTLLGAQPEDEAEYFCALWYSNLWVFGGGTKLTVL
modifications: Molecule I (+20K, shown only as a drawing) conjugated on Cys 34
B18: anti-CD3 antibody mutant VH-W111C conjugated with Molecule I (+20K) (antibody, V domains shown)
VH: EVQLVESGGGLVQPGGSLRLSCAASGFTFSTYAMNWVRQAPGKGLEWVGRIRSKYNNYATYYADSVKDRFTISRDDSKNSLYLQMNSLKTEDTAVYYCARHGNFGNSYVSCFAYWGQGTLVTVSS
VL: QTVVTQEPSLTVSPGGTVTLTCRSSTGAVTTSNYANWVQQKPGQAPRGLIGGTNKRAPGVPARFSGSLLGDKAALTLLGAQPEDEAEYFCALWYSNLWVFGGGTKLTVL
modifications: Molecule I (+20K, shown only as a drawing) conjugated on Cys 111
B19: anti-CD3 antibody mutant VH-F104C conjugated with Molecule I (+20K) (antibody, V domains shown)
VH: EVQLVESGGGLVQPGGSLRLSCAASGFTFSTYAMNWVRQAPGKGLEWVGRIRSKYNNYATYYADSVKDRFTISRDDSKNSLYLQMNSLKTEDTAVYYCARHGNCGNSYVSWFAYWGQGTLVTVSS
VL: QTVVTQEPSLTVSPGGTVTLTCRSSTGAVTTSNYANWVQQKPGQAPRGLIGGTNKRAPGVPARFSGSLLGDKAALTLLGAQPEDEAEYFCALWYSNLWVFGGGTKLTVL
modifications: Molecule I (+20K, shown only as a drawing) conjugated on Cys 104
B20: anti-CD3 antibody mutant VL-Y34C conjugated with Molecule I (+20K) (antibody, V domains shown)
VH: EVQLVESGGGLVQPGGSLRLSCAASGFTFSTYAMNWVRQAPGKGLEWVGRIRSKYNNYATYYADSVKDRFTISRDDSKNSLYLQMNSLKTEDTAVYYCARHGNFGNSYVSWFAYWGQGTLVTVSS
VL: QTVVTQEPSLTVSPGGTVTLTCRSSTGAVTTSNCANWVQQKPGQAPRGLIGGTNKRAPGVPARFSGSLLGDKAALTLLGAQPEDEAEYFCALWYSNLWVFGGGTKLTVL
modifications: Molecule I (+20K, shown only as a drawing) conjugated on Cys 34

For 20 molecules, Binding strength of mutants (EC50 mutant/EC50 wild-type) and Blocking fold after conjugation (+20K) results are on record in patent publication EP4578875A1.

For the first experiment, the target named is CD3 (antibody antigen coated on the ELISA plate in Examples 1 to 3) (Homo sapiens (Human)) (UniProt P07766). As to the kind of experiment: ELISA, antigen coated, anti-human IgG-HRP; against wild-type anti-CD3 antibody.
CD3 (antibody antigen coated on the ELISA plate in Examples 1 to 3) (Homo sapiens (Human)), sequence (P07766 23-126 limits assumed): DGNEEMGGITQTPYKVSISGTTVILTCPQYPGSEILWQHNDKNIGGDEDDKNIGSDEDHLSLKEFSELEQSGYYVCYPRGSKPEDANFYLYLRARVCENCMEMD
B1 registered a Binding strength of mutants (EC50 mutant/EC50 wild-type) of 1.1. On the same count and under the same terms, as for B2, the figure is 1. Turning to B3, the Binding strength of mutants (EC50 mutant/EC50 wild-type) was 0.9. For B4, the Binding strength of mutants (EC50 mutant/EC50 wild-type) stood at 2. Consider B5, for which the Binding strength of mutants (EC50 mutant/EC50 wild-type) was 1. Still for that read-out and setting: under B6 stands 1.2; under B7, 1.5; under B8, 1. On the same count and under the same terms, as for B9, the figure is 5.1. On the same count and under the same terms, as for B10, the figure is 1.8; as for B11, 1; as for B12, 1.2.

For a further experiment the target is unchanged. As to the kind of experiment: binding activity of the conjugated mutant compared with the wild-type antibody (ELISA as in Example 1).
For B13, the Blocking fold after conjugation (+20K) stood at 6 fold. On to B14, for which the Blocking fold after conjugation (+20K) was determined as 12 fold. Regarding B15, the Blocking fold after conjugation (+20K) amounted to 3 fold. Still for that read-out and setting: under B16 stands 5 fold. Same read-out and setting: under B17 stands 5 fold; under B18, 6 fold. Still for that read-out and setting: under B19 stands 13 fold.

For B20, the Blocking fold after conjugation (+20K) was found to be 8 fold.
